This passage reports EC50, Kd and percent inhibition of FITC-gp120Bal binding results from patent publication US20190000964A1.

Bounds are passed on as bounds.

Test [1] deals with human CCR5 receptor (hCCR5) (human) (UniProt P51681). As to the kind of experiment: inhibition of gp120/sCD4 complex binding to CCR5-expressing Cf2Th cells by competing peptide.
The target is the same in test [2].
For test [3] the target is unchanged. Kind of test: 0.5 nM non-labeled gp120 Bal against 0.5 nM FITC-gp120Bal on Cf2Th/synCCR5 cells with sCD4.

Chain of human CCR5 receptor (hCCR5) (human) (P51681 whole entry): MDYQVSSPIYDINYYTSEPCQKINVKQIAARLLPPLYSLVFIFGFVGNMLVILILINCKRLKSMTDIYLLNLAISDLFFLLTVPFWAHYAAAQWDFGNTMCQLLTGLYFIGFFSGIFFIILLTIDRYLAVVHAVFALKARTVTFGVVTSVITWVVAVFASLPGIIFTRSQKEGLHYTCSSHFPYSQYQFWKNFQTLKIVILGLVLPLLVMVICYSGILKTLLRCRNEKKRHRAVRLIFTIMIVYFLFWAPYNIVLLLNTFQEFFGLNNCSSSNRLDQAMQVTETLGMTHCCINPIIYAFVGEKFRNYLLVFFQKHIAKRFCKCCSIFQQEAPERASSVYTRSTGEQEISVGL

Consider All D, ttnyt (peptide), for which the concentration giving a half-maximal response (EC50) – broadly, the midpoint of the concentration-response curve – in test [1] turned out to be 2 nM. For the substance “gp120 Bal-sCD4 complex (from UniProt P01730 26-396)”, the Kd – broadly, the equilibrium constant for the complex coming apart – in test [2] amounted to 0.46 nM. The substance further returned a percent inhibition of FITC-gp120Bal binding in test [3] of over 80%. “gp120 CM235-sCD4 complex (from UniProt P01730 26-396)” showed a Kd in test [2] of 0.77 nM.
